T1: recombinant human C35 (rhC35) (Homo sapiens, UniProt Q9BRT3)
T1 construct: made in house; host or cells: E. coli
T1 sequence (Q9BRT3 1-115): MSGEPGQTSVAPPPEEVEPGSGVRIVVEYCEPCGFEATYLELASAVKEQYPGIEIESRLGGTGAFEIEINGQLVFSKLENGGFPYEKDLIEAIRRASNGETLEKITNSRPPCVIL

T2: C35 (Homo sapiens, UniProt Q9BRT3)
T2 sequence (Q9BRT3 1-115): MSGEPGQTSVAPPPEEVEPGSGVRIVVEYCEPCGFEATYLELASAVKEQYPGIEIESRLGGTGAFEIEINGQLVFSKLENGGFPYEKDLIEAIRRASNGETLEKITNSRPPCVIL

B1: 1F2: mouse monoclonal anti-C35 antibody from hybridoma 1F2.4.1, gamma1 isotype, kappa light chain (SEQ ID NO:4, 6) (antibody, V domains shown)
VH: DVQLQESGPGLVKPSQSLSLTCSVTGYSITSGYFWNWIRQFPGNKLEWMGYISYDGSNNSNPSLKNRISFTRDTSKNQFFLKFNSVTTDDSAAYYCTRGTTGFAYWGQGTLVTVSA
VL: QIVLTQSPAIMSASPGEKVTISCSASSSVSYMNWYQQKPGSSPKPWIYHTSNLASGVPARFSGSGSGTSYSLTISSMEAEDAATYYCQQYHSYPPTFGGGTKLEIK
B2: 1B3: mouse monoclonal anti-C35 antibody from hybridoma 1B3.6.1, gamma1 isotype, kappa light chain (SEQ ID NO:8, 10) (antibody, V domains shown)
VH: EVQLQESGPSLVKPSQTLSLTCSVTGDSITSGYWNWIRKFPGNKLEYVGYISYSGGTYYNPSLKSRISITRDTSKNHYYLQLNSVTTEDTATYYCARGAYYGGAFFPYFDVWGAGTTVTVSS
VL: DVQITQSPSFLAASPGETITINCRASKYISKHLVWYQEKPGETKKLLIYSGSTLQSGLPSRFSGSGSGTDFTLTISSLEPEDFAMYYCQQHNEYPLTFGAGTKLELK

What was measured:
[1] = target: T1, recombinant human C35 (rhC35); assay: Epitope mapping by Lys-C digestion of rhC35 and Western blot; type: binding; conditions: residues numbered from amino terminal methionine of native human C35
Source text: To localize the epitope specificity of 1B3 and 1F2 antibodies, recombinant human C35 (rhC35) synthesized with a 6×His tag in E. coli was digested with Lys-C endoproteinase. This enzyme cuts after lysine (K) residues in the protein sequence. […] The full sequence of rhC35, including the amino terminal 6×His tag addition is shown. Amino acid positions are numbered relative to the amino terminal methionine (M) of the native human sequence. Note that digestion at the first and third lysine followed by negatively charged residues is inefficient and some longer combination fragments may be generated. Lys-C endoproteinase was added to purified rhC35 at a 50:1 weight ratio and incubated for 18 hours at 37° C. in 25 mM Tris, pH 8.0. The digest was ethanol precipitated and resolubilized in reducing Tricine sample buffer. […] Peptides were transferred to PVDF membranes and the blots depicted in FIG. 10 were either stained with Coomassie blue (lanes 1-3 of both left and right panels) to detect all peptides or processed with one of the following: 1 μg/ml of the murine 1F2 anti-C35 antibody followed by alkaline phosphatase conjugated goat anti-mouse antibody (lane 4 of left panel); 1 μg/ml of the 1B3 anti-C35 immunoglobulin variable regions linked to human constant regions (MAb11) followed by alkaline phosphatase conjugated goat anti-human antibody (lane 5 of left panel); or anti-6×His tag mouse antibody (Amersham) followed by alkaline phosphatase conjugated goat anti-mouse antibody (lane 4 and 5 of right panel). BCIP/NBT substrate was added and developed to detect the secondary reagents. Molecular weight markers are indicated in the flanking lanes of both panels.
In FIG. 10, the indicated band A migrates at the position of undigested rhC35. Note that band B stains with 1F2 but not MAb11 (1B3) anti-C35 antibody while band C stains with neither 1F2 nor MAb11 (1B3) antibody. Since bands B and C both do stain with anti-6×His tag antibody to the 6×His tag at the amino terminus of rhC35, it may be concluded that both fragments lack C-terminal peptide fragments. […]

[2] = tested on: C35-positive MDA231 tumor cells; assay: Two C35 antibodies and paclitaxel in MDA231 xenograft (FIG. 12); type: in vivo, Swiss nude mice; conditions: antibody 20 mg/kg i.v. twice weekly for three weeks, paclitaxel 30 mg/kg i.p. days 17 and 24
Procedure: As illustrated in FIG. 12 and described in this example, methods of treating cancer directed to the administration of two C35 antibodies in combination with a chemotherapeutic agent were tested. Five million C35-positive MDA231 tumor cells were implanted subcutaneously in the mammary fat pads of Swiss nude mice. Groups of at least five mice each received the following treatments, beginning on day 17 post-graft: • 1. No Treatment (Control Group) • 2. 30 mg/kg i.p. injection of paclitaxel on days 17 and 24. • 3. 30 mg/kg i.p. injection of paclitaxel on days 17 and 24, together with 400 μg per i.v. injection (20 mg/kg) of 1F2 murine monoclonal antibody starting on day 17 and continuing twice weekly for three weeks. • 4. 30 mg/kg i.p. injection of paclitaxel on days 17 and 24, together with 400 μg per i.v. injection (20 mg/kg) of […] murine monoclonal antibody starting on day 17 and continuing twice weekly for three weeks. • 5. […]
Average mouse tumor volume was measured at various time points post-graft. Two measurements were taken with vernier calipers on each tumor; tumor volume was calculated using the formula (length×width^2)/2. […]

C35 = target: T2, C35; assay: Characterisation of hybridoma antibodies (ELISA, Western blot, immunohistochemistry, competitive binding ELISA); conditions: for binding to recombinant C35 protein: ELISA and Western Blot
Procedure: Hybridoma cell lines 1F2.4.1 and 1B3.6.1, specific for C35 polypeptides, were prepared using hybridoma technology. (Kohler et al., Nature 256:495 (1975); Kohler et al., Eur. J. Immunol. 6:511 (1976); Kohler et al., Eur. J. Immunol. 6:292 (1976); Hammerling et al., in: Monoclonal Antibodies and T-Cell Hybridomas, Elsevier, N.Y., pp. 571-681 (1981)). Briefly, hybridoma cell lines were generated using standard PEG fusion to the non-secreting myeloma cell line NS-1 (P3/NS1/1-AG4-1, ATCC #TIB-18) of splenocytes from BALB/c mice immunized with syngeneic BCA34 fibroblast tumor cells transduced to over express C35. Following PEG fusion to NS-1, the hybridomas were grown in methylcellulose semi-solid media. Approximately 2 weeks later, hybridoma colonies were isolated into 96 well plates and individual supernatants were tested for reactivity with C35 by ELISA, Western blot, and immunohistochemistry. Positive hybridoma colonies were subcloned and screened for reactivity twice to ensure clonality. Antibodies were isolated from hybridoma supernatants by protein G affinity purification using standard methods. […] In addition, the present inventors developed intracellular staining flow cytometry assays for quantitative analysis using antibodies from hybridoma cell line 1F2 conjugated to Alexa-647 fluorochrome. Each of these antibodies is distinct, yet both are specific for C35 protein. It is possible to immunoprecipitate C35 protein from cell lysates with either of these antibodies and detect with the other.

Row | Molecule | epitope specificity [1] | tumor growth, one antibody with paclitaxel [2] | competitive binding ELISA (C35) | binding to recombinant C35 protein (C35) | immunohistochemistry staining (C35; formalin fixed, paraffin embedded)
1 | B1 | specific for an epitope within the C35 residues 48-104 | neither the 1F2 nor 1B3 administered individually with the chemotherapeutic agent paclitaxel was effective in inhibiting tumor growth | bind different epitopes of the C35 protein | specifically bind recombinant C35 protein in ELISA and Western Blot assays | specifically stain formalin fixed, paraffin embedded C35 positive tumors and cell lines
2 | B2 | specific for an epitope within C35 residues 105-115 | neither the 1F2 nor 1B3 administered individually with the chemotherapeutic agent paclitaxel was effective in inhibiting tumor growth | bind different epitopes of the C35 protein | specifically bind recombinant C35 protein in ELISA and Western Blot assays | 

Source: US20080305111A1, “Anti-C35 antibodies for treating cancer” (VACCINEX, INC., priority 2006, published 2008)
